The results in this text go back to patent US20060166860A1, “Zinc transporter compositions for the treatment of cardiovascular diseases” (priority 2002, published 2006).

Entries after “also recorded” stand apart in the source; their conditions may differ.

The subject of one test is ZnT-1. The test can be described thus: ZnT-1 expression in cultured brain astrocytes by Western Blot. It counts as cell-based. Particulars: 20 and 50 μM Zn for 12 hours (FIG. 9). The procedure: (§1) Western Blots were carried out in the classical method described in Molecular Cloning—A laboratory manual by Sambroock et al., Cold Spring Harbor Laboratory Press, 2nd edition, 1989.
In astrocytes, zinc influx is mainly mediated by the LTCC. Astrocytes were treated with sub-lethal amounts (20 and 50 μM) of Zn for 12 hours, and ZnT-1 expression evaluated by Western Blot (FIG. 9b).
A general note: In western blotting, separated proteins are transferred to a membrane and probed.

The test system of test [1] is LTCC. The test can be described thus: Zinc influx in astrocytes pre-treated with zinc. It counts as cell-based. Particulars: astrocytes pre-treated with 20, 50 or 100 μM zinc for 24 or 48 hours (FIG. 10). The procedure:
Cells were superfused with a Ringer's solution containing: 120 mM NaCl, 5 mM KCl, 20 mM glucose, 10 mM Hepes, 0.5 mM MgCl, 1.8 mM CaCl2 at pH 7.4. For depolarization experiments aimed to fully activate the LTCC, 45 mM NaCl were replaced with 45 mM KCl. ZnSO4 was added at the indicated concentration to this solution.
Cells were incubated for 30 minutes with 5 μM of the ratiometric dye Fura-2-AM (TEF Labs) in 0.1% BSA-sodium Ringer's solution. Fura-2-AM binds zinc with very high affinity. After incubation, the cells were washed in Ringer's solution and the cover glass mounted on a holder that allowed the perfusion of liquids into the cells. Signals resulting from Ca^+2 or Zn^+2 changes were distinguished by using the intracellular zinc chelator TPEN. Changes in intracellular cation concentration were monitored by a single cell imaging system, consisting of a Zeiss Axiovert 100, inverted microscope, Polychrome II monochromator (TILL Photonics) and a cooled CCD (PCO). The data was acquired and processed by Axon Imaging Workbench 2, Excel and KleidaGraph. […] The data was analyzed post acquisition, by selecting single cells (30-50) from the field of view and recording their activity.
Astrocytes were pre-treated with 20, 50 or 100 μM of zinc for 24 or 48 hours, and subsequent rates of zinc influx were determined. […]

For another test, the system named is intracellular zinc. The test can be described thus: Fura-2 fluorescence signal of intracellular zinc in HEK 293 cells. Format: cell-based, human. As to conditions: HEK 293 cells exposed to zinc, then TPEN (FIG. 1, FIG. 3 inset). The procedure: Cells were incubated for 30 minutes with 5 μM of the ratiometric dye Fura-2-AM (TEF Labs) in 0.1% BSA-sodium Ringer's solution. Fura-2-AM binds zinc with very high affinity. After incubation, the cells were washed in Ringer's solution and the cover glass mounted on a holder that allowed the perfusion of liquids into the cells. Signals resulting from Ca^+2 or Zn^+2 changes were distinguished by using the intracellular zinc chelator TPEN. Changes in intracellular cation concentration were monitored by a single cell imaging system, consisting of a Zeiss Axiovert 100, inverted microscope, Polychrome II monochromator (TILL Photonics) and a cooled CCD (PCO). The data was acquired and processed by Axon Imaging Workbench 2, Excel and KleidaGraph. Fura-2 was excited at 340 nm and 380 nm and the image obtained with a 510 nm long-pass filter. The data was analyzed post acquisition, by selecting single cells (30-50) from the field of view and recording their activity.
To measure the accumulation of intracellular zinc, HEK 293 cells were superfused with Ca-free, zinc-containing Ringer solution, and the […] of Fura-2 was evaluated. Fura-2 is a highly sensitive probe for changes in intracellular Zn^2+ concentration.

The next test relates to L-type Ca channel (LTCC). Put plainly: Zinc influx into HEK 293 cells, Fura-2 fluorescence. Format: cell-based, human. As to conditions: control vs ZnT-1 transfected HEK 293 cells, 400 μM zinc (FIG. 4a). Here is the method:
(§2) PC12 and human embryonic kidney (HEK) 293 cells were grown in DMEM medium (Sigma) as described [Montrose Rafizadeh, C. et al. (1997) J. Cell Physiol. 170:299-308], and seeded on cover slides for 1-2 days prior to measurements.
(§3) HEK 293 cells were transiently transfected with 3 μg of plasmid containing ZnT-1 (kindly provided by Dr. R. D. Palmiter, Howard Hughes Medical Institute, University of Washington, Seattle, Wash.) or vector alone, using the calcium precipitation method as described [Sekler, I. et al. (1995) J Biol. Chem. 270:11251-6]. Pherochromocytoma PC12 cells were co-transfected with ZnT-1 or EYFP (Clontech) for control, using the Fugene-6 reagent (Roche). Measurements were performed 36-48 hours following transfection. […]
(§4) Cells were incubated for 30 minutes with 5 μM of the ratiometric dye Fura-2-AM (TEF Labs) in 0.1% BSA-sodium Ringer's solution. […] Changes in intracellular cation concentration were monitored by a single cell imaging system, consisting of a Zeiss Axiovert 100, inverted microscope, Polychrome II monochromator (TILL Photonics) and a cooled CCD (PCO). […] The data was analyzed post acquisition, by selecting single cells (30-50) from the field of view and recording their activity. […]
Control and ZnT-1 transfected HEK 293 cells were exposed to 400 μM zinc, and the rate of zinc influx was monitored over time (FIG. 4a-b).

Test [2] deals with LTCC. Put plainly: Zinc influx into HEK 293 cells transfected with LTCC alone or with ZnT-1. It counts as cell-based, human. Here is the method:
as §2, §3
Cells were incubated for 30 minutes with 5 μM of the ratiometric dye Fura-2-AM (TEF Labs) in 0.1% BSA-sodium Ringer's solution. […] Changes in intracellular cation concentration were monitored by a single cell imaging system, consisting of a Zeiss Axiovert 100, inverted microscope, Polychrome II monochromator (TILL Photonics) and a cooled CCD (PCO). […] The data was analyzed post acquisition, by selecting single cells (30-50) from the field of view and recording their activity.
Rates of zinc influx into HEK293 cells transfected with LTCC only or co-transfected with LTCC and ZnT-1 were measured. […]

Another test relates to L-type Ca channels. Put plainly: Ca influx into depolarized PC12 cells expressing endogenous L-type Ca channels. It counts as cell-based. Particulars: ZnT-1 transfected vs control PC12 cells, 1.8 mM calcium, high K+ (FIG. 8). Here is the method:
as §2
(§5) HEK 293 cells were transiently transfected with 3 μg of plasmid containing ZnT-1 (kindly provided by Dr. R. D. Palmiter, Howard Hughes Medical Institute, University of Washington, Seattle, Wash.) or vector alone, using the calcium precipitation method as described [Sekler, I. et al. (1995) J Biol. Chem. 270:11251-6]. Pherochromocytoma PC12 cells were co-transfected with ZnT-1 or EYFP (Clontech) for control, using the Fugene-6 reagent (Roche). Measurements were performed 36-48 hours following transfection.
Cells were superfused with a Ringer's solution containing: 120 mM NaCl, 5 mM KCl, 20 mM glucose, 10 mM Hepes, 0.5 mM MgCl, 1.8 mM CaCl2 at pH 7.4. […]
as §4

The subject of a further test is HEK 293 cells. Put plainly: Zinc efflux in HEK 293 cells transfected with ZnT-1. Particulars: cells transfected with ZnT-1 vs non-transfected (FIG. 3). Format: cell-based, human. Here is the method: as §2, §5
Cells were incubated for 30 minutes with 5 μM of the ratiometric dye Fura-2-AM (TEF Labs) in 0.1% BSA-sodium Ringer's solution. Fura-2-AM binds zinc with very high affinity. […] Changes in intracellular cation concentration were monitored by a single cell imaging system, consisting of a Zeiss Axiovert 100, inverted microscope, Polychrome II monochromator (TILL Photonics) and a cooled CCD (PCO). […] The data was analyzed post acquisition, by selecting single cells (30-50) from the field of view and recording their activity.

Test [3] deals with LTCC. Put plainly: LTCC expression by immunoblot, HEK 293 cells transfected with LTCC. Format: cell-based, human. As to conditions: presence or absence of ZnT-1 (FIG. 7). Here is the method:
as §1
(§6) Thus, ZnT-1 putative regulation of LTCC is likely to be at the functional level, and not at the expression level.

Test [4] deals with LTCC. The test can be described thus: LTCC expression by immunoblot, PC12 cells endogenously expressing LTCC. Format: cell-based. Particulars: presence or absence of ZnT-1 (FIG. 7). Here is the method:
as §1, §6

Test [5] deals with LTCC. Put plainly: Immunoprecipitation with ZnT-1 antibody and Western blot with LTCC antibody, HEK 293 cells. It counts as binding, human. Particulars: HEK 293 cells co-transfected with LTCC and ZnT-1 (FIG. 11). Here is the method: as §1
(§7) Immunopercipitation using ZnT-1 antibody followed by Western blot with LTCC antibody was performed.

For test [6], the system named is LTCC. Put plainly: Immunoprecipitation with ZnT-1 antibody and Western blot with LTCC antibody, cardiac tissue. It counts as binding. Particulars: mouse cardiac tissue expressing both ZnT-1 and LTCC (FIG. 11). Here is the method:
as §1, §7

As for `[Zn+2]` [Zinc, ZnSO4], the values for the ZnT-1 expression entry in the test on ZnT-1 (listed as Zn^2+) and with ZnT-1 (listed as Zn^+2) were “induced by Zn^2+ in a dose-dependent manner” and “induced by Zn^+2 in a dose-dependent manner”, respectively. The “rate of zinc influx” value with LTCC [1] is recorded as “reduction of zinc influx”.
On to `c1ccc(CN(CCN(Cc2ccccn2)Cc2ccccn2)Cc2ccccn2)nc1` [TPEN, tetrakis-(2-pyridylmethyl)ethylenediamine], for which the Fura-2 fluorescence signal entry in the test with intracellular zinc is listed as “lowered the fluorescence signal; also recorded: eliminated”.

B1: ZnT-1: protein encoded by the gene ZnT-1, originally described as a zinc transporter; GenBank Accession No. U17132; expressed by transfection (protein, UniProt Q9Y6M5 1-507, looked up)
Proton-coupled zinc …: MGCWGRNRGRLLCMLALTFMFMVLEVVVSRVTSSLAMLSDSFHMLSDVLALVVALVAERFARRTHATQKNTFGWIRAEVMGALVNAIFLTGLCFAILLEAIERFIEPHEMQQPLVVLGVGVAGLLVNVLGLCLFHHHSGFSQDSGHGHSHGGHGHGHGLPKGPRVKSTRPGSSDINVAPGEQGPDQEETNTLVANTSNSNGLKLDPADPENPRSGDTVEVQVNGNLVREPDHMELEEDRAGQLNMRGVFLHVLGDALGSVIVVVNALVFYFSWKGCSEGDFCVNPCFPDPCKAFVEIINSTHASVYEAGPCWVLYLDPTLCVVMVCILLYTTYPLLKESALILLQTVPKQIDIRNLIKELRNVEGVEEVHELHVWQLAGSRIIATAHIKCEDPTSYMEVAKTIKDVFHNHGIHATTIQPEFASVGSKSSVVPCELACRTQCALKQCCGTLPQAPSGKDAEKTPAVSISCLELSNNLEKKPRRTKAENIPAVVIEIKNMPNKQPESSL
notes: protein encoded by the gene ZnT-1, originally described as a zinc transporter; expressed by transfection
On to B1, for which the “rate of zinc influx” value in the test with L-type Ca channel (LTCC) was “attenuated”. In the test with LTCC [2] (HEK 293, co-expression of LTCC and ZnT-1 vs LTCC alone and non-transfected control (FIG. 6)), the zinc influx result is on record as “reduction in the zinc influx to levels comparable to control; also recorded: reduction in the cation influx to levels comparable to control”. The “reduction in rate of zinc permeation through LTCC” value with LTCC [2] (HEK293 co-transfected with LTCC and ZnT-1 vs LTCC alone (FIG. 4c)) came out at 5 fold. The “rate of Ca influx” value in the test with L-type Ca channels is listed as “inhibits the rate of Ca influx”. Further, the zinc efflux result with HEK 293 cells is recorded as “not accelerated”. Also, the LTCC expression level result is listed as “Neither cell type showed changes; also recorded: not changed” in the test on LTCC [3] and “Neither cell type showed changes; also recorded: not changed; also recorded: without changing LTCC expression” in the test on LTCC [4]. Further, the “co-immunoprecipitation of ZnT-1 with LTCC” value was “much higher co-immunopercipitation; also recorded: reveals a band” in the test on LTCC [5] and “A similar effect; also recorded: reveals a band” with LTCC [6].
